The text below walks through data of paper PMC5472768.

In assay [1] the target is CLL183 Fab (Fab of the BcR IG of CLL subset no. 4 case CLL183) (human). Put plainly: AUC; sedimentation equilibrium, 0.1, 0.15 and 0.26 mg ml^-1 in storage buffer, 20 °C, four speeds, global fit with a two-state self-association model; dimer to monomers.
Assay [2] has the same target. Put plainly: AUC; sedimentation velocity, absorbance detection, 72,756g, 20 °C; CLL240 and wild-type CLL183 at 0.1, 0.2 and 0.4 mg ml^-1, CLL183 mutants and the other Fabs up to 1 mg ml^-1; storage buffer (50 mM Tris pH 7, 100 mM glycine) and PBS; monomer-dimer; koff from simultaneous fit of three ….
For assay [3], the target named is CLL240 Fab (Fab of the BcR IG of CLL subset no. 4 case CLL240) (human). As to the kind of experiment: AUC; sedimentation equilibrium, 0.1, 0.15 and 0.26 mg ml^-1 in storage buffer, 20 °C, four speeds, global fit with a two-state self-association model; dimer to monomers.
For assay [4] the target is unchanged. As to the kind of experiment: AUC; sedimentation velocity, absorbance detection, 72,756g, 20 °C; CLL240 and wild-type CLL183 at 0.1, 0.2 and 0.4 mg ml^-1, CLL183 mutants and the other Fabs up to 1 mg ml^-1; storage buffer (50 mM Tris pH 7, 100 mM glycine) and PBS; monomer-dimer; koff from simultaneous fit of three ….
Assay [5] addresses P11475 IgM Fab fragment (Fab of the BcR IG of CLL subset no. 2 case P11475) (human). Put plainly: ITC; dilution ITC, VP-ITC, 20 °C; 20 mM Tris pH 7.4, 100 mM glycine, 100 mM NaCl; Fab at the maximum achievable concentration (300-400 μM) injected into buffer; dimer to monomers. For orientation: Isothermal titration calorimetry measures the heat released or taken up as one component is titrated into another.

For assay [6] the target is unchanged. As to the kind of experiment: AUC; sedimentation velocity, absorbance detection, 72,756g, 20 °C; CLL240 and wild-type CLL183 at 0.1, 0.2 and 0.4 mg ml^-1, CLL183 mutants and the other Fabs up to 1 mg ml^-1; storage buffer (50 mM Tris pH 7, 100 mM glycine) and PBS; monomer-dimer; koff from simultaneous fit of three ….

B1: CLL183 Fab (Fab of the BcR IG of CLL subset no. 4 case CLL183) (Fab, V domains shown)
VH: QLQLQQWGAGLLKPSETLSLTCAVYGGSFSGYYWTWIRQSPGKGLEWIGEINHSGSTTYNPSLKSRVTISVDTSKNQFSLKLNSVTAADTAVYYCARGYGDTPTIRRYYYYGMDVWGQGTTVTVSS
VL: DVVMTQSPLSLPVTLGQPASISCRSSQSLVHSDGNTYLNWFQQRPGQSPRRLIYKVSDRDSGVPDRFSGSGSGTDFTLKISRVEAEDVGLYYCMQGTHWPPYTFGQGTKVEIK
By Kd is commonly meant the free concentration of one partner at which half of the binding sites on the other are occupied at equilibrium, for simple one-to-one binding. A low value points to higher affinity. Broadly, the koff is a measure of how fast the partners let go of each other. Read a high koff as a short-lived complex. As usually defined, the stoichiometry N is a count of units in the complex or per binding partner. B1 showed a Kd in assay [1] of 15.6 µM. In assay [2], this molecule showed an off-rate (koff) of 1.99e-05 s⁻¹ and a stoichiometry N of 2.

B2: CLL240 Fab (Fab of the BcR IG of CLL subset no. 4 case CLL240) (Fab, V domains shown)
VH: QVQLQQWGAGLLKPSETLSLNCAVYGESFSGYYWSWIRQPPGKGLEWIGEINHSGSTNYNPSLKSRVTISVDTSKNQFSLKLSSVTAADAAIYYCARGYADTPVFRRYYYYGMDVWAKGTTVTVSS
VL: DIVMTQSPLSLPVTLGQPASISCRSSQSLVHSDGNTYLNWFQQRPGQSPRRLIYKVSDRDSGVPDRFSGSGSGTDFTLKISRVEAEDVGVYYCMQGTHWPPYTFGQGTKVEIK
B2 registered a Kd in assay [3] of 14 µM. In assay [4], this molecule registered a koff of 0.000263 s⁻¹ and a stoichiometry N of 2.

B3: P11475 IgM Fab fragment (Fab of the BcR IG of CLL subset no. 2 case P11475) (Fab, V domains shown)
VH: EVQLVESGGGLVKPGGSLRLSCAASGFTFRSYSMNWVRQAPGKGLEWVSSIISSSSYIYYADSVKGRFTISRDNAKNSLYLQMNSLRAEDTALYYCARDQNAMDVWGQGTTVTVSS
VL: SYELTQPPSVSVAPGKTARITCAGNNIGSKSVHWYQQKPGQAPVLVIYYDSDRPSGIPERFSGSNSGNTATLTISRVEAGDEADYYCQVWDSGSDHPWVFGGGTKLTVL
In assay [5], B3 yielded a Kd of 430 µM and a dH of -5.4 kcal/mol. Further, in assay [6], the koff was above 0.01 s⁻¹.
